# Reference: patent publication US9644034B2, “Anti-RSPO2 antibodies and uses thereof” (OncoMed Pharmaceuticals, Inc., priority 2011, dated 2017)
# T1: LGR5 (Homo sapiens, UniProt O75473)
# T1 construct: ligating amino acids 22-564 of human LGR5 to an N-terminal FLAG tag; expressed in transfected cells; host or cells: HEK-293
# T1 sequence (O75473 22-564): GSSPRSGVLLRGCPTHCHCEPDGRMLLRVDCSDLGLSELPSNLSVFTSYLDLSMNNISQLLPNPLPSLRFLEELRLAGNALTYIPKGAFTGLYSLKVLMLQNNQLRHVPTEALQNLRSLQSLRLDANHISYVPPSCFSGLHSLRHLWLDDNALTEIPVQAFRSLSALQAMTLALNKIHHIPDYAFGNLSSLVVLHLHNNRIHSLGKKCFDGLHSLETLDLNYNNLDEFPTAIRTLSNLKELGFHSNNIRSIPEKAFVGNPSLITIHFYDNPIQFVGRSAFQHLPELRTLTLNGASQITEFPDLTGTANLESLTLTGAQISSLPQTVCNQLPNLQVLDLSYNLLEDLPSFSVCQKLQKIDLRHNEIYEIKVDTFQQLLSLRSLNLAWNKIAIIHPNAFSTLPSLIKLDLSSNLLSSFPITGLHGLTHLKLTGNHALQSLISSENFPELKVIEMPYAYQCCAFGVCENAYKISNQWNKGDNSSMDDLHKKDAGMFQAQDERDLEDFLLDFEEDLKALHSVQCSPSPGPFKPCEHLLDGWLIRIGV
# B1: RSPO3: full-length human RSPO3 ligated to a human Fc region (protein)
# chain: QNASRGRRQRRMHPNVSQGCQGGCATCSDYNGCLSCKPRLFFALERIGMKQIGVCLSSCPSGYYGTRYPDINKCTKCKADCDTCFNKNFCTKCKSGFYLHLGKCLDNCPEGLEANNHTMECVSIVHCEVSEWNPWSPCTKKGKTCGFKRGTETRVREIIQHPSAKGNLCPPTNETRKCTVQRKKCQKGERGKKGRERKRKKPNKGESKEAIPDSKSLESSKEIPEQRENKQQQKKRKVQDKQKSVSVSTVH
# B2: 89M25: anti-RSPO1 monoclonal antibody; same heavy and light chain variable regions as 89M5 (antibody, V domains shown)
# VH: EVQLQQSGPELVKPGASVKISCKTSGYTFTGYTMHWVRQSHGKTLEWIGGINPNNGGTTYNQNFKGKATLTVEKSSTTAYLELRSLTSEDSALYYCARKEFSDGYYFFAYWGQGTLVTVSA
# VL: DIVMTQSHKFMSTSVGDRVNITCKASQDVIFAVAWYQQKPGQSPKLLIYWASTRHTGVPDRFTGSVSGTDYTLTISSVQAEDLALYYCQQHYSTPWTFGGGTKLEIK
# B3: h89M5-H2L2: humanized anti-RSPO1 antibody; heavy chain SEQ ID NO:68, light chain SEQ ID NO:69 (antibody)
# heavy: QVQLVQSGAEVKKPGASVKVSCKTSGYTFTGYTMHWVRQAPGQRLEWMGGINPNNGGTTYNQNFKGRVTITRDTSASTAYMELSSLRSEDTAVYYCARKEFSDGYYFFAYWGQGTLVTVSSASTKGPSVFPLAPCSRSTSESTAALGCLVKDYFPEPVTVSWNSGALTSGVHTFPAVLQSSGLYSLSSVVTVPSSNFGTQTYTCNVDHKPSNTKVDKTVERKCCVECPPCPAPPVAGPSVFLFPPKPKDTLMISRTPEVTCVVVDVSHEDPEVQFNWYVDGVEVHNAKTKPREEQFNSTFRVVSVLTVVHQDWLNGKEYKCKVSNKGLPAPIEKTISKTKGQPREPQVYTLPPSREEMTKNQVSLTCLVKGFYPSDIAVEWESNGQPENNYKTTPPMLDSDGSFFLYSKLTVDKSRWQQGNVFSCSVMHEALHNHYTQKSLSLSPGK
# light: DIQMTQSPSSLSASVGDRVTITCKASQDVIFAVAWYQQKPGKAPKLLIYWASTRHTGVPSRFSGSGSGTDYTLTISSLQPEDFATYYCQQHYSTPWTFGGGTKVEIKRTVAAPSVFIFPPSDEQLKSGTASVVCLLNNFYPREAKVQWKVDNALQSGNSQESVTEQDSKDSTYSLSNTLTLSKADYEKHKVYACEVTHQGLSSPVTKSFNRGEC
# modifications: h89M5-H2L2 Heavy chain amino acid sequence; h89M5-H2L2 Light chain amino acid sequence
# B4: RSPO4: full-length human RSPO4 ligated to a human Fc region (protein)
# chain: LNRRKKQVGTGLGGNCTGCIICSEENGCSTCQQRLFLFIRREGIRQYGKCLHDCPPGYFGIRGQEVNRCKKCGATCESCFSQDFCIRCKRQFYLYKGKCLPTCPPGTLAHQNTRECQGECELGPWGGWSPCTHNGKTCGSAWGLESRVREAGRAGHEEAATCQVLSESRKCPIQRPCPGERSPGQKKGRKDRRPRKDRKLDRRLDVRPRQPGLQP
# modifications: left off: a dimerising Fc or GST
# notes: full-length human RSPO4 ligated to a human Fc region
# Assays:
# [1] = target: T1, LGR5; experiment: FACS binding of RSPO-Fc fusion proteins to LGR5 expressed on HEK-293 cells; conditions: Fc fusion proteins 10 μg/ml
# Source text: A cell surface LGR5 protein was generated by ligating amino acids 22-564 of human LGR5 to an N-terminal FLAG tag and to the transmembrane domain of CD4 and a C-terminal GFP protein tag using standard recombinant DNA techniques (FLAG-LGR5-CD4TM-GFP). RSPO-Fc constructs were generated using standard recombinant DNA techniques. Specifically, full-length human RSPO1, RSPO2, RSPO3 and RSPO4 were ligated in-frame to a human Fc region and the recombinant RSPO-Fc proteins were expressed in insect cells using baculovirus. The fusion proteins were purified from the insect medium using protein A chromatography.
# (§1) HEK-293 cells were transiently transfected with the FLAG-LGR5-CD4TM-GFP construct. After 48 hours, transfected cells were suspended in ice cold PBS containing 2% FBS and heparin and incubated on ice in the presence of 10 μg/ml RSPO1-Fc, RSPO2-Fc, RSPO3-Fc, RSPO4-Fc, or FZD8-Fc fusion proteins for 15 minutes. A second incubation with 100 μl PE-conjugated anti-human Fc secondary antibody was performed to detect cells bound by the Fc fusion proteins. Cells were incubated with an anti-FLAG antibody (Sigma-Aldrich, St. Louis, Mo.) as a positive control and with an anti-PE antibody as a negative control. The cells were analyzed on a FACSCalibur instrument (BD Biosciences, San Jose, Calif.) and the data was processed using FlowJo software.
# [2] = target: T2, human RSPO1 (Homo sapiens, UniProt Q2MKA7); experiment: FACS screening of hybridoma supernatants on HEK-293 cells expressing FLAG-RSPO1furin-CD4TM-GFP; type: binding
# T2 construct: followed by the two furin-like domains of RSPO1 (aa 34-135); expressed in transfected cells; host or cells: HEK-293
# T2 sequence (Q2MKA7 34-135): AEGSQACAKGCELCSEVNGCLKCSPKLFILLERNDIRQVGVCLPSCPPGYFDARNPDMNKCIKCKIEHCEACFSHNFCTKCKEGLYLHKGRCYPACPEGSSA
# Source text: Antibodies were generated against recombinant human RSPO1 protein amino acids 31-263 (R&D Systems, Minneapolis, Minn.). Mice (n=3) were immunized with RSPO1 protein using standard techniques. Sera from individual mice were screened against RSPO1 approximately 70 days after initial immunization using FACS analysis. The animal with the highest antibody titer was selected for final antigen boost after which spleen cells were isolated for hybridoma production. SP2/0 cells were used as fusion partners for the mouse spleen cells. Hybridoma cells were plated at 1 cell per well in 96 well plates, and the supernatants were screened against human RSPO1 by FACS analysis.
# For FACS screening of anti-RSPO1 antibodies a chimeric fusion protein enabling cell surface expression of the N-terminal furin-like domains of human RSPO1 was constructed.
# as §1, with “were” for “were transiently”, “FLAG-RSPOlfurin-CD4TM-GFP.” for “the FLAG-LGR5-CD4TM-GFP construct.”, “50 μl of hybridoma supernatants” for “10 μg/ml RSPO1-Fc, RSPO2-Fc, RSPO3-Fc, RSPO4-Fc, or FZD8-Fc fusion proteins”, “30” for “15”, “antibody.” for “the Fc fusion proteins.”, “and” for “and with”
# [3] = tested on: RSPO1-induced β-catenin signaling; experiment: TOPflash luciferase assay in HEK-293 cells, Wnt3a plus human RSPO1; type: cell-based; conditions: Wnt3a 5 ng/ml, RSPO1 10 ng/ml; antibodies 10 to 0.625 μg/ml
# Experimental: HEK-293 cells were transfected with a 6×TCF-luciferase reporter vector (TOPflash, Millipore, Billerica, Mass.). After 24-48 hrs, the transfected HEK-293 cells were incubated with a combination of Wnt3a (5 ng/ml) and human RSPO1 (10 ng/ml, R&D BioSystems) in the presence of anti-RSPO1 antibodies 89M2, 89M4, 89M5, 89M7, 89M19, and 89M25, or 2 irrelevant control antibodies 254M14 and 254M26 (2-fold dilutions at 10 μg/ml to 0.625 μg/ml). The cells were incubated for 16 hours and luciferase activity was measured using Steady-Glo® Luciferase Assay System according to the manufacturer's instructions (Promega, Madison, Wis.).
# [4] = target: T3, binding of RSPO1 to LGR5 (Homo sapiens, UniProt Q2MKA7); experiment: FACS: blocking of soluble RSPO1-Fc binding to LGR5 on HEK-293 cells; conditions: RSPO1-Fc 10 μg/ml, antibodies 10 μg/ml
# T3 construct: full-length human RSPO1, RSPO2, RSPO3 and RSPO4 were ligated in-frame to a human Fc region; made in house; host or cells: RSPO1-Fc: insect cells (baculovirus); LGR5 construct: transiently transfected HEK-293
# T3 sequence (Q2MKA7 21-263): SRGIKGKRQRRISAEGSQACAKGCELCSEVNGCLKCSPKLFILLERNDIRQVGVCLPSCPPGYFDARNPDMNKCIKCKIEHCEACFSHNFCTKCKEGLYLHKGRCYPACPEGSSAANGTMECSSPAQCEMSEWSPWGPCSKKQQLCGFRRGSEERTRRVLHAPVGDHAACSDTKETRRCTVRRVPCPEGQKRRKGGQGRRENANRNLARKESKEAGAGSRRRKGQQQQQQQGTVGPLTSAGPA
# Experimental: HEK-293 cells were transiently transfected with the FLAG-LGR5-CD4TM-GFP construct (previously described in Example 2). After 48 hours, transfected cells were suspended in ice cold PBS containing 2% FBS and heparin and incubated on ice in the presence of RSPO1-Fc protein (10 μg/ml) and antibodies 89M2, 89M4, 89M5, 89M7, 89M19 or 89M25 (10 μg/ml). A second incubation with 100 μl PE-conjugated anti-human Fc secondary antibody was performed to detect cells bound by the RSPO1-Fc fusion protein. The cells were analyzed on a FACSCalibur instrument (BD Biosciences, San Jose, Calif.) and the data was processed using FlowJo software.
# [5] = tested on: OV19 ovarian tumor cells; experiment: OV19 ovarian tumor xenograft growth in NOD/SCID mice; type: in vivo; conditions: day 35, vs control antibody; antibodies 15 mg/kg once a week, intraperitoneal
# Experimental: Dissociated OV19 ovarian tumor cells (1×10^5cells) were injected in the mammary fat pads of 6-8 week old NOD/SCID mice. Tumors were allowed to grow for 45 days until they reached an average volume of 134 mm^3. The mice were randomized (n=10 per group) and treated with anti-RSPO1 antibody 89M5, 89M25, taxol, a combination of 89M5 and taxol, a combination of 89M25 and taxol, or control antibody 1B7.11. Antibodies were dosed at 15 mg/kg once a week, and taxol was dosed at […] once a week. Administration of the antibodies and taxol was performed via injection into the intraperitoneal cavity. Tumor growth was monitored and tumor volumes were measured with electronic calipers at the indicated time points. Data are expressed as mean±S.E.M.
# [6] = target: T2, human RSPO1; experiment: FACS binding of 89M5 and humanized 89M5 to HEK293 cells expressing FLAG-RSPO1furin-CD4TM-GFP; conditions: five-fold serial dilutions
# Experimental: HEK293 cells were transiently transfected with an expression vector encoding FLAG-RSPO1furin-CD4TM-GFP. As described in Example 5, FLAG-RSPO1furin-CD4TM-GFP is a chimeric fusion protein enabling cell surface expression of the N-terminal furin-like domains of human RSPO1. FLAG-RSPO1 furin-CD4TM-GFP transfected cells were incubated in the presence of anti-RSPO1 antibody 89M5 or humanized anti-RSPO1 antibody h89M5-H2L2. Five-fold serial dilutions of each antibody were examined for their ability to bind to the RSPO1 expressing cells. The cells were stained with Phycoerythrin conjugated anti-IgG to reveal bound antibody. The cells were analyzed on a FACSCalibur instrument (BD Biosciences, San Jose, Calif.) and the data was processed using FlowJo software.
molecule,measurement,setting,value
B1,binding to LGR5 expressed on the surface of HEK-293 cells,[1],bound
B2,binding to RSPO1 (FACS),[2],bound
same,blocking of RSPO1-induced β-catenin signaling,[3],blocked
same,blocking of binding of RSPO1 to LGR5,[4],blocked
same,reduction in tumor growth,[5],25%
B3,binding to human RSPO1 (FACS),[6],bind
B4,binding to LGR5 expressed on the surface of HEK-293 cells,[1],bound
